Data on four molecules can be found in patent US12144864B2, “Tubulysins and protein-tubulysin conjugates” (Regeneron Pharmaceuticals, Inc., priority 2018, dated 2024).

Data set [1] deals with STEAP2 positive C4-2 prostate cancer xenografts. Put plainly: In vivo efficacy of anti-STEAP2 ADCs in C4-2 prostate cancer xenografts in SCID mice. Further details: species or system mouse. Conditions: single dose 2.5 mg/kg via tail vein; end of study. The procedure: To determine the in vivo efficacy of anti-STEAP2 antibodies conjugated to tubulysins, studies were performed in immunocompromised mice bearing STEAP2 positive C4-2 prostate cancer xenografts.
For the assay, 7.5×10^6 C4-2 cells (ATCC, Cat #CRL-3314), which endogenously express STEAP2, were suspended in Matrigel (BD Biosciences, Cat #354234) and implanted subcutaneously into the left flank of male CB17 SCID mice (Taconic, Hudson NY). Once tumors had reached an average volume of 220 mm^3 (around Day 15), mice were randomized into groups of 7 and given a single dose of either anti-STEAP2 conjugated antibodies (anti-STEAP2-LP3, anti-STEAP2-LP4, anti-STEAP2-MMAE), isotype control conjugated antibody, or vehicle at 2.5 mg/kg via tail vein injection. Tumors were measured with calipers twice a week until the average size of the vehicle group reached 1500 mm^3. Tumor size was calculated using the formula (length×width^2)/2 and the average tumor size+/−SEM was then calculated. Tumor growth inhibition was calculated according to the following formula: (1−((Tfinal−Tinitial)/(Cfinal−Cinitial)))*100, where treated group (T) and control group (C) represent the mean tumor mass on the day the vehicle group reached 1500 mm^3.

Data set [2] deals with CTG-2440 prostate cancer PDX. Put plainly: Efficacy of STEAP2-Tubulysin ADC in CTG-2440 PDX prostate cancer model in NOG mice. Format: in vivo, mouse. The procedure:
(§1) Prostate cancer Patient-Derived Xenograft (PDX) tumor fragments of either CTG-2440 or CTG-2441 were implanted subcutaneously into the flank of male NOG mice. Once the tumor volumes reached approximately 200 mm^3, mice were randomized into groups of eight and were treated according to the schedule shown in Table 16 below. Tumor growth was monitored for 60 days post-implantation.
(§2) The prostate cancer models were derived from the bone metastases of patients with metastatic castrate resistant prostate cancer (mCRPC). STEAP2 expression was confirmed by RNA sequencing data and RNA in situ hybridization.

The subject of data set [3] is CTG-2441 prostate cancer PDX. Put plainly: Efficacy of STEAP2-Tubulysin ADC in CTG-2441 PDX prostate cancer model in NOG mice. Type of data set: in vivo, mouse. The protocol:
as §1, §2

Data set [4] has as its target T1, human full length PRLR (accession #NP_000940.1) expressed on HCT15/PRLR cells (human, UniProt P16471 25-622).
T1 sequence (looked up): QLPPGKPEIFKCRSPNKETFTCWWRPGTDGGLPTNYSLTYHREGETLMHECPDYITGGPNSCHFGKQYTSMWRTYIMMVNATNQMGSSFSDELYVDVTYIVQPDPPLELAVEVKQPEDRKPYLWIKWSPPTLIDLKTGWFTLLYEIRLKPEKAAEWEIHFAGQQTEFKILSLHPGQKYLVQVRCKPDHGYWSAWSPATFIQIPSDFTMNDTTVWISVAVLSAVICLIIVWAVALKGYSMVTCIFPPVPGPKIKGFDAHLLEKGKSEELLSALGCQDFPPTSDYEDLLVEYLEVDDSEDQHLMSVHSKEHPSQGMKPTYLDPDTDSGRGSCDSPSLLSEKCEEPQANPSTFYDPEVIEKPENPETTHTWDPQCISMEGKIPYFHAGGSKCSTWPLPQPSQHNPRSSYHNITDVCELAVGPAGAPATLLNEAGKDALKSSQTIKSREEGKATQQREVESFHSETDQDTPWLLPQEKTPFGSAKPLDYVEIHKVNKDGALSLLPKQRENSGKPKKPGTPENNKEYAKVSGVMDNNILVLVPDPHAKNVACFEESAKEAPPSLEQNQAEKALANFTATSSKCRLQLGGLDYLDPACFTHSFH
Put plainly: cell-based or functional assay.

Data set [5] is described as follows: In vitro plasma stability of ADCs (DAR by LC-MS), mouse plasma. Type of data set: in vitro ADME. Conditions: 37° C., 50 μg/mL, DAR at 0 hr 3.8 (LP3 ADC), 4.0 (LP4 ADC), acetyl-hydrolyzed species counted as loss of drug. The procedure: (§3) To determine the plasma stability of representative ADCs containing the tubulysin payloads, ADCs were incubated in vitro with plasma from different species, and the DAR was evaluated after incubation at physiological temperature (37° C.) for 3 days.
(§4) For the assay, each ADC sample (anti-PRLR antibody-LP3 or anti-PRLR antibody-LP4) in PBS buffer was added to fresh pooled male mouse, cynomologus monkey, rat, or human plasma, separately, at a final concentration of 50 μg/mL in a 96-well plate, and subsequently incubated at 37° C. for 72 hours. After incubation, each sample (100 μL final volume) was individually frozen at −80° C. until analysis.
(§5) Affinity capture of the ADCs from the plasma samples was carried out on a KingFisher 96 magnetic particle processor (Thermo Electron). First, biotinylated extracellular domain of human PRLR expressed with a myc-myc hexahistidine tag (hPRLR ecto-MMH; SEQ ID NO: 17;100 μg/mL) was immobilized on streptavidin paramagnetic beads (In vitrogen, Cat #60210). Each plasma sample containing tubulysin ADCs (100 μL) was mixed at 600 rpm with 100 μL of the beads (the commercial beads come in volume) at room temperature for 2 hours in a 96-well plate. The beads were then washed three times with 600 μL of HBS-EP (GE healthcare, Cat #BR100188), once with 600 μL of H2O, and then once with 600 μL of 10% acetonitrile in water. […]

Data set [6] is described as follows: In vitro plasma stability of ADCs (DAR by LC-MS), cynomolgus monkey plasma. Type of data set: in vitro ADME. Conditions: 37° C., 50 μg/mL, DAR at 0 hr 3.8 (LP3 ADC), 4.0 (LP4 ADC), acetyl-hydrolyzed species counted as loss of drug. The protocol: as §3, §4, §5
Data set [7] in a line: In vitro plasma stability of ADCs (DAR by LC-MS), rat plasma. Format: in vitro ADME. Conditions: 37° C., 50 μg/mL, DAR at 0 hr 3.8 (LP3 ADC), 4.0 (LP4 ADC), acetyl-hydrolyzed species counted as loss of drug. The protocol: as §3, §4, §5
A short description of data set [8]: In vitro plasma stability of ADCs (DAR by LC-MS), human plasma. Conditions: 37° C., 50 μg/mL, DAR at 0 hr 3.8 (LP3 ADC), 4.0 (LP4 ADC), acetyl-hydrolyzed species counted as loss of drug. Format: in vitro ADME. The protocol:
as §3, §4, §5

A further data set has as its system HCT15/PRLR cells. Put plainly: Cytotoxicity of anti-PRLR tubulysin ADCs and payloads in HCT15/PRLR cells with or without Verapamil. Format: cell-based, human. Conditions: at maximum concentration tested. The protocol: To test the ability of the disclosed tubulysin payloads to kill human cell lines, an in vitro cytotoxicity assay was performed. In vitro cytotoxicity of the disclosed payloads, as well as reference compounds, were evaluated using the CellTiter-Glo Assay Kit (Promega, Cat #G7573), in which the quantity of ATP present is used to determine the number of viable cells in culture. For the assay, C4-2, HEK293, or T47D cells were seeded at 4000 cells/well on Nunclon white 96-well plates in complete growth medium (DME high glucose:Ham's F12 at 4:1, 10% FBS, 100 units/ml Penicillin, 100 ug/ml streptomycin, 53 ug/ml glutatmine, 10 ug/ml insulin, 220 ng/ml biotin, 12.5 pg/ml T3, 12.5 ug/ml Adenine, 4 ug/ml transferrin for C42 cells; DME high glucose, 10% FBS, 100 units/ml Penicillin, 100 ug/ml streptomycin, 53 ug/ml glutatmine for HEK293; RPMI, 10% FBS, 100 units/ml Penicillin, 100 ug/ml streptomycin, 53 ug/ml glutatmine, 10 ug/ml insulin, 10 mM HEPEs, 200 nM Sodium Pyruvate for T47D cells) and grown overnight at 37° C. in 5% CO2. For cell viability curves, 1:3 serially diluted payloads were added to the cells at final concentrations ranging from 100 nM to […], including a no treatment control group, and were then incubated for 5 days. After the 5-day incubation, cells were incubated at room temperature with 100 μL of CellTiter-Glo reagents for 10 minutes. Relative luminescence units (RLU) were determined on a Victor plate reader (PerkinElmer). The IC50 values were determined from a four-parameter logistic equation over a 10-point response curve (GraphPad Prism). All IC50 values are expressed in molar (M) concentration. The percent cell killing (% kill) at the maximum concentration tested was estimated from the following formula (100−% viable cells). Averages±standard deviation (SD) are included where replicate experiments were performed.
Bioassays were developed to assess the efficacy of an anti-PRLR antibody conjugated with the disclosed tubulysin payloads and reference payloads. It was developed to assess the activity of tubulysin payloads after internalization of an anti-PRLR-tubulysin ADC into cells, release of the payload, and subsequent cytotoxicity. For this assay, a HCT15 line was engineered to express human full length PRLR (accession #NP_000940.1). The resulting stable cell line is referred to herein as HCT15/PRLR. In vitro cytotoxicity of the disclosed payloads, reference compounds, and tested ADCs were evaluated similarly as described in this example using HCT15/PRLR cells with or without […] of Verapamil diluted in normal culture medium. The compounds were tested at concentrations starting at 100 nM with 3-fold serial dilution. All IC50 values are expressed in nM concentration and the percent cell killing (% kill) at the maximum concentration tested was estimated from the following formula (100−% viable cells).

The mark [9] stands for this setting: 1.86 mg/kg QW × 1, total payload dose 40 ug/kg.
[10] abbreviates: 1.86 mg/kg QW × 3, total payload dose 120 ug/kg.
Setting [11] is: 3.72 mg/kg QW × 3, total payload dose 240 ug/kg.
Setting [12] is: 1.82 mg/kg QW × 1, total payload dose 40 ug/kg.
Where [13] appears, read: 1.82 mg/kg QW × 3, total payload dose 120 ug/kg.
Setting [14] is: 3.64 mg/kg QW × 3, total payload dose 240 ug/kg.

B1: Anti-STEAP2-LP4 (conjugate)
VH: QVQLVESGGGVVQPGRSLRLSCVASGFTISSYGMNWVRQAPGKGLEWVAVISYDGGNKYSVDSVKGRFTISRDNSKNTLYLQMNSLRAEDSAVYYCARGRYFDLWGRGTLVTVSS
VL: DIQMTQSPSTLSASVGDRVTITCRASQSISSWLAWYQQKPGRAPNLLISKASSLKSGVPSRFSGSGSGTEFTLTVSSLQPDDFATYYCQQYYSYSYTFGQGTKLEIK
As for B1, the “Average Final Tumor size mm^3 (mean ± SEM)” value in [1] is 258 ± 60 mm^3. Besides, the “Average Tumor Growth Inhibition (%)” value in data set [1] is 97%. In addition, the “Final tumor volume (mm^3) at termination (mean ± SD)” value is 179.9 ± 68.5 mm^3 in data set [2] (setting [9]); 73.5 ± 53.4 mm^3 in data set [2] (setting [10]); 6.0 ± 11.4 mm^3 in data set [2] (setting [11]); 171.8 ± 176.1 mm^3 in data set [3] (setting [12]); 46.0 ± 15.1 mm^3 in data set [3] (setting [13]); 33.5 ± 13.6 mm^3 in data set [3] (setting [14]). The “Tumor growth (mm^3) from start of treatment (mean ± SD)” value is −20.0 ± 65.1 mm^3 in data set [2] (setting [9]); −129.3 ± 67.7 mm^3 in [2] (setting [10]); −196.5 ± 37.1 mm^3 in data set [2] (setting [11]); −36.8 ± 167.0 mm^3 in data set [3] (setting [12]); −164.0 ± 57.3 mm^3 in data set [3] (setting [13]); −179.1 ± 51.3 mm^3 in [3] (setting [14]).

B2: Anti-PRLR N297Q Ab-LP3 (antibody, V domains shown)
VH: QVQLVESGGGVVQPGRSLRLSCGASGFTFRNYGMQWVRQGPGKGLEWVTLISFDGNDKYYADSVKGRFTISRDNSKNTLFLQMNSLRTEDTAVYYCARGGDFDYWGQGTLVTVSS
VL: DIQMTQSPSSLSASVGDRVTITCRASQDIRKDLGWYQQKPGKAPKRLIYAASSLHSGVPSRFSGSGSGTEFTLTISSLQPEDFATYYCLQHNSYPMYTFGQGTKLEIK
modifications: N297Q (EU numbering) in the heavy chain constant region; linker-payload LP3 (payload IVd) clicked to azido-PEG3-amine that transglutaminase put on heavy chain glutamines; DAR 3.9 (Table 7)
Turning to B2, in [4], the “IC50 (nM) on HCT15/PRLR w/ Verapamil (CellTiter-Glo cytotoxicity)” value was found to be 0.309 nM and the “IC50 (nM) on HCT15/PRLR w/o Verapamil (CellTiter-Glo cytotoxicity)” value is 0.525 nM.

B3: Anti-PRLR N297Q Ab-LP4 (antibody, V domains shown)
VH: B2 VH
VL: B2 VL
modifications: N297Q (EU numbering) in the heavy chain constant region; linker-payload LP4 (payload Ve) clicked to azido-PEG3-amine that transglutaminase put on heavy chain glutamines; DAR 3.9 (Table 7)
Take B3: in [4], the “IC50 (nM) on HCT15/PRLR w/ Verapamil (CellTiter-Glo cytotoxicity)” value was determined as 0.196 nM and the “IC50 (nM) on HCT15/PRLR w/o Verapamil (CellTiter-Glo cytotoxicity)” value is 3.31 nM.

B4: Anti-PRLR-LP3 (conjugate)
VH: B2 VH
VL: B2 VL
modifications: non-natural residues
Turning to B4, the “DAR after 72 hours of incubation” value in data set [5] was found to be 2.7; in data set [6], 2.7; in [7], 2.7; in data set [8] it was 3.0. Further, the “% kill on HCT15/PRLR w/ Verapamil” value with HCT15/PRLR cells (with Verapamil) was 91%. Also, the “% kill on HCT15/PRLR w/o Verapamil” value in the data set with HCT15/PRLR cells (without Verapamil) came to 90%.
